Reference: article PMC4160023 (Nature, 2013)

Target: the molecule itself
Test: negative-stain electron microscopy

B1: hRegIIIα E114Q mutant (natural protein, human, UniProt Q06141 38-175, looked up)
chain: IRCPKGSKAYGSHCYALFLSPKSWTDADLACQKRPSGNLVSVLSGAEGSFVSSLVKSIGNSYSYVWIGLHDPTQGTQPNGEGWEWSSSDVMNYFAWERNPSTISSPGHCASLSRSTAFLRWKDYNCNVRLPYVCKFTD
- binding result: binds
